Where no end group is shown, it is not given here.
Legend:
[1] = biological target: T1, Mut1T110N biotin labeled HCV core peptide (hepatitis C virus, biotin labeled (position not given)); assay: capture EIA; Ab 1.953 ng/mL; bt-peptide 500 ng/mL
T1 peptide: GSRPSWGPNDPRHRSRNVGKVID

[2] = biological target: T2, WT1STHV biotin labeled HCV core peptide (hepatitis C virus, biotin labeled (position not given)); assay: capture EIA; Ab 1.953 ng/mL; bt-peptide 500 ng/mL
T2 peptide: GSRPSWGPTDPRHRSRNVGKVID

[3] = biological target: T3, Mut6T110S biotin labeled HCV core peptide (hepatitis C virus, biotin labeled (position not given)); assay: capture EIA; Ab 1.953 ng/mL; bt-peptide 500 ng/mL
[4] = biological target: T4, 92-133 biotin labeled HCV core peptide (hepatitis C virus, UniProt Q9WMX2 92-133, chain 1: biotin label (bt-pep). Its position and any spacer are not visible in the passages shown.); assay: capture EIA; Ab 1.953 ng/mL; bt-peptide 500 ng/mL
T4 construct: Only the label 92-133 is printed
T4 peptide: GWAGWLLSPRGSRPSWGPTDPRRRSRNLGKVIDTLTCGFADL
Description: (§1) Assay wells were coated with sheep anti-mouse IgG Fc specific antibody and incubated overnight. The coating solution was then removed; the wells blocked using BSA/tween in PBS and then washed with dH2O. […] Next, biotin labeled peptides (diluted to 500 ng/mL in block) were added, the plates incubated for 10 minutes while shaking at 700 rpm and then washed. Peroxidase conjugated streptavidin (diluted to 200 ng/mL in block) was then added to all assay wells, incubated for 20 minutes while shaking at 700 rpm and then washed. Finally, color was developed using OPD and signal quenched using 1N H₂SO₄. Signal was read at 492 nm.

[5] = biological target: T5, C113T109N biotin labeled HCV core peptide (hepatitis C virus, also: biotin labeled, position not given here); assay: capture EIA; Ab 1.953 ng/mL; bt-peptide 500 ng/mL
T5 construct: also called C113T110N
T5 peptide: RGSRPSWGPND

[6] = biological target: T6, C113WT biotin labeled HCV core peptide (hepatitis C virus, also: biotin labeled, position not given here); assay: capture EIA; Ab 1.953 ng/mL; bt-peptide 500 ng/mL
T6 peptide: RGSRPSWGPTD

HCV core peptide 57 = HCV core peptide 57 (hepatitis C virus, N-terminal biotin; C-terminal amide); assay: peptide EIA, 2 ug/mL IgG;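 also: purified mouse IgG binding to individually well-coated synthetic peptides, detected with peroxidase anti-mouse IgG Fc and o-phenylenediamine, IgG incubated at least 1 h at room temperature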
Description: (§2) The coated plates were kept dry in a sealed foil pouch and stored at <10 degrees C. until ready for use. A peptide coated plate for each test antibody was blocked using 3% BSA in PBS with 0.5% Tween 20. The blocked plates were washed with distilled water and a 2 ug/mL solution of purified IgG from each test sample diluted in BSA block solution was added to each peptide coated well of the blocked plate and allowed to incubate at room temperature for at least one hour. Following incubation the plates were washed with distilled water. A 200 ng/mL solution of peroxidase labeled F(ab′)2 fragment goat anti-mouse IgG Fc fragment specific (Jackson Immunoresearch) in BSA block solution was added to all wells and incubated at room temperature for 30 minutes. The plates were washed with distilled water and o-phenylenediamine substrate was used as the chromagen to generate signal. Plates were read at 492 nm and the results were analyzed.

HCV core peptide 89 = HCV core peptide 89 (hepatitis C virus, N-terminal biotin; C-terminal amide); assay: peptide EIA, 2 ug/mL IgG;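 also: purified mouse IgG binding to individually well-coated synthetic peptides, detected with peroxidase anti-mouse IgG Fc and o-phenylenediamine, IgG incubated at least 1 h at room temperature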
Description: as §2

HCV core peptide 55 = biological target: T7, HCV core peptide 55 (hepatitis C virus, HELM PEPTIDE1{[O=C1N[C@H]2[C@H](CS[C@H]2CCCCC(=O)[*:2])N1].S.G.S.G.P.T.D.P.R.R.R.S.R.N.L.G.K.V.I.[am]}$$$$V2.0; SMILES …); assay: peptide EIA, 2 ug/mL IgG;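 also: purified mouse IgG binding to individually well-coated synthetic peptides, detected with peroxidase anti-mouse IgG Fc and o-phenylenediamine, IgG incubated at least 1 h at room temperature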
T7 construct: also called aa 109-123
T7 peptide: SGSGPTDPRRRSRNLGKVI
Description: as §2

HCV core peptide 48 = biological target: T8, HCV core peptide 48 (hepatitis C virus, HELM PEPTIDE1{[O=C1N[C@H]2[C@H](CS[C@H]2CCCCC(=O)[*:2])N1].S.G.S.G.G.W.L.L.S.P.R.G.S.R.P.S.W.G.P.[am]}$$$$V2.0; SMILES …); assay: peptide EIA, 2 ug/mL IgG;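 also: purified mouse IgG binding to individually well-coated synthetic peptides, detected with peroxidase anti-mouse IgG Fc and o-phenylenediamine, IgG incubated at least 1 h at room temperature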
T8 construct: also called aa 95-109
T8 peptide: SGSGGWLLSPRGSRPSWGP
Description: as §2

HCV core peptide 18 = biological target: T9, HCV core peptide 18 (hepatitis C virus, N-terminal biotin; C-terminal amide); assay: peptide EIA, 2 ug/mL IgG
T9 construct: range 35-49
Description: as §2

HCV core peptide 34 = biological target: T10, HCV core peptide 34 (hepatitis C virus, N-terminal biotin; C-terminal amide); assay: peptide EIA, 2 ug/mL IgG
T10 construct: range 67-81
Description: as §2

HCV core peptide 4 = biological target: T11, HCV core peptide 4 (hepatitis C virus, N-terminal biotin; C-terminal amide); assay: peptide EIA, 2 ug/mL IgG
T11 construct: range 7-21
Description: as §2

HCV core peptide 70 = HCV core peptide 70 (hepatitis C virus, N-terminal biotin; C-terminal amide); assay: peptide EIA, 2 ug/mL IgG
Description: as §2

HCV core peptide 88 = HCV core peptide 88 (hepatitis C virus, N-terminal biotin; C-terminal amide); assay: peptide EIA, 2 ug/mL IgG
Description: as §2

HCV core peptide 84 = HCV core peptide 84 (hepatitis C virus, N-terminal biotin; C-terminal amide); assay: peptide EIA, 2 ug/mL IgG
Description: as §2

HCV core peptide 59 = HCV core peptide 59 (hepatitis C virus, N-terminal biotin; C-terminal amide); assay: peptide EIA, 2 ug/mL IgG
Description: as §2

HCV core peptide 17 = biological target: T12, HCV core peptide 17 (hepatitis C virus, N-terminal biotin; C-terminal amide); assay: peptide EIA, 2 ug/mL IgG
T12 construct: range 33-47
Description: as §2

HCV core peptide 52 = biological target: T13, HCV core peptide 52 (hepatitis C virus, HELM PEPTIDE1{[O=C1N[C@H]2[C@H](CS[C@H]2CCCCC(=O)[*:2])N1].S.G.S.G.S.R.P.S.W.G.P.T.D.P.R.R.R.S.R.[am]}$$$$V2.0; SMILES …); assay: peptide EIA, 2 ug/mL IgG
T13 peptide: SGSGSRPSWGPTDPRRRSR
Description: as §2

HCV core peptide 33 = biological target: T14, HCV core peptide 33 (hepatitis C virus, N-terminal biotin; C-terminal amide); assay: peptide EIA, 2 ug/mL IgG
T14 construct: range 65-79
Description: as §2

HCV core peptide 40 = biological target: T15, HCV core peptide 40 (hepatitis C virus, N-terminal biotin; C-terminal amide); assay: peptide EIA, 2 ug/mL IgG
T15 construct: range 79-93
Description: as §2

HCV core peptide 69 = HCV core peptide 69 (hepatitis C virus, N-terminal biotin; C-terminal amide); assay: peptide EIA, 2 ug/mL IgG
Description: as §2

HCV core peptide 10 = biological target: T16, HCV core peptide 10 (hepatitis C virus, N-terminal biotin; C-terminal amide); assay: peptide EIA, 2 ug/mL IgG
T16 construct: range 19-33
Description: as §2

[7] = biological target: T3, Mut6T110S biotin labeled HCV core …; assay: capture EIA; Ab 62.5 ng/mL; bt-peptide 500 ng/mL
Description: as §1

[8] = biological target: T4, 92-133 biotin labeled HCV core peptide; assay: capture EIA; Ab 62.5 ng/mL; bt-peptide 500 ng/mL
Description: as §1

[9] = biological target: T5, C113T109N biotin labeled HCV core …; assay: capture EIA; Ab 62.5 ng/mL; bt-peptide 500 ng/mL
Description: as §1

[10] = biological target: T6, C113WT biotin labeled HCV core peptide; assay: capture EIA; Ab 62.5 ng/mL; bt-peptide 500 ng/mL
Description: as §1

B1: Neo4 mouse monoclonal antibody (antibody, V domains shown)
VH: QIQLKESGPAVIKPSQSLSLTCIVSGFSITSSVYCWQWIRQPPGKGLEWMGRICYDGSVDYSPSITSRGTISRDTSLNKVFFQLSSVTNEDTAMYYCSRENHIDYYDTTYPSFDVWGAGTTVTVSS
VL: DIVLTQSPASLIVSLGQRATISCRASKSVNEYGYTYMHWYQQKPGLPPKLLIYLASNLDSGVPARFSGSGSGTDFTLNIHPVEEEDAATYYCQHSRELPYTFGGGTKLEIKR
notes: Mouse hybridoma antibody, isotype IgG1, purified with Protein G; also called HCV Neo4
[1]
  signal at 492 nm: 0.0728 A492
[2]
  signal at 492 nm: 0.409 A492
[3]
  signal at 492 nm: 0.0717 A492
[4]
  signal at 492 nm: 0.129 A492
[5]
  signal at 492 nm: 0.0853 A492
[6]
  signal at 492 nm: 0.0765 A492
HCV core peptide 57
  OD (A492 nm): 0.05 OD
HCV core peptide 89
  OD (A492 nm): 0.05 OD
HCV core peptide 55
  OD (A492 nm): 0.97 OD
HCV core peptide 48
  OD (A492 nm): 0.04 OD
HCV core peptide 18
  OD (A492 nm): 0.05 OD
HCV core peptide 34
  OD (A492 nm): 0.04 OD
HCV core peptide 4
  OD (A492 nm): 0.06 OD
HCV core peptide 70
  OD (A492 nm): 0.04 OD
HCV core peptide 88
  OD (A492 nm): 0.05 OD
HCV core peptide 84
  OD (A492 nm): 0.05 OD
HCV core peptide 59
  OD (A492 nm): 0.05 OD
HCV core peptide 17
  OD (A492 nm): 0.04 OD
HCV core peptide 52
  OD (A492 nm): 0.93 OD
HCV core peptide 33
  OD (A492 nm): 0.05 OD
HCV core peptide 40
  OD (A492 nm): 0.05 OD
HCV core peptide 69
  OD (A492 nm): 0.05 OD
HCV core peptide 10
  OD (A492 nm): 0.05 OD
[7]
  signal at 492 nm: 1.11 A492
[8]
  signal at 492 nm: 1.47 A492
[9]
  signal at 492 nm: 0.111 A492
[10]
  signal at 492 nm: 0.0626 A492
